Experiments:
Taq polymerase [1] = experiment: Mode III whole blood, globin PCR (KM-29/HRI-12) with inhibitor treatment; type: biochemical; conditions: 250 μg bovine transferrin, 10 mM sodium bicarbonate; 25,000 to 0 cells; no product without treatment
Method: Generally, PCR was carried out using 175-200 μM dNTPS (deoxyribonucleoside 5'-triphosphates) and 0.5 to 1.0 μM primers. Five units/100 μl of Taq polymerase were used. PCR reactions were overlaid with 30-100 μl light mineral oil. A typical PCR cycle for HIV amplification using a Perkin-Elmer Cetus DNA Thermal Cycler (Part No. N8010150) was: denaturation at 95° C. for 30 seconds; annealing at 55° C. for 30 seconds; and extension at 72° C. for 1 minute. PCR cycles were normally carried out in this manner for 35 cycles followed by 7 minutes at 72° C.
In one case, amplification of globin sequences was performed using primer pair KM-29 (SEQ ID NO:10)and HRI-12 (SEQ ID NO:11) to give a 174 bp product within the human beta globin gene.
Whole blood samples were lysed with protease K (500 μg/ml, 55° C. for 1 hour). The enzyme was inactivated by heating (95°-100°C., 10 minutes). Aliquots corresponding to 25,000, 10,000, 5,000, 2,000, 1000, 500 and 0 cells were made. Bovine transferrin (250 μg) was added to each sample as well as the cofactor sodium bicarbonate (adjusted to 10 mM) and the reaction was incubated at room temperature for 30 minutes. Concentrated PCR reagents were then added to each sample to a final volume of 100 μl. […]

Taq polymerase [2] = experiment: HIV PCR after inhibitor treatment of whole blood lysate; type: biochemical; conditions: with cofactor sodium bicarbonate
Method: The enzyme was inactivated by heating (95°-100° C., 10 minutes).

Row | Molecule | globin PCR product after inhibitor treatment (Taq polymerase [1]) | activity as interfering reagent (Taq polymerase [2])
1 | Bovine Transferrin: bovine transferrin (protein, UniProt Q29443 20-704, looked up) Serotransferrin: DPERTVRWCTISTHEANKCASFRENVLRILESGPFVSCVKKTSHMDCIKAISNNEADAVTLDGGLVYEAGLKPNNLKPVVAEFHGTKDNPQTHYYAVAVVKKDTDFKLNELRGKKSCHTGLGRSAGWNIPMAKLYKELPDPQESIQRAAANFFSASCVPCADQSSFPKLCQLCAGKGTDKCACSNHEPYFGYSGAFKCLMEGAGDVAFVKHSTVFDNLPNPEDRKNYELLCGDNTRKSVDDYQECYLAMVPSHAVVARTVGGKEDVIWELLNHAQEHFGKDKPDNFQLFQSPHGKDLLFKDSADGFLKIPSKMDFELYLGYEYVTALQNLRESKPPDSSKDECMVKWCAIGHQERTKCDRWSGFSGGAIECETAENTEECIAKIMKGEADAMSLDGGYLYIAGKCGLVPVLAENYKTEGESCKNTPEKGYLAVAVVKTSDANINWNNLKDKKSCHTAVDRTAGWNIPMGLLYSKINNCKFDEFFSAGCAPGSPRNSSLCALCIGSEKGTGKECVPNSNERYYGYTGAFRCLVEKGDVAFVKDQTVIQNTDGNNNEAWAKNLKKENFEVLCKDGTRKPVTDAENCHLARGPNHAVVSRKDKATCVEKILNKQQDDFGKSVTDCTSNFCLFQSNSKDLLFRDDTKCLASIAKKTYDSYLGDDYVRAMTNLRQCSTSKLLEACTFHKP | decreasing product band corresponding to the decreasing amount of cells | 
2 | rat transferrin: transferrin from rat (protein, UniProt P12346 20-698, looked up) Serotransferrin: VPDKTVKWCAVSEHENTKCISFRDHMKTVLPADGPRLACVKKTSYQDCIKAISGGEADAITLDGGWVYDAGLTPNNLKPVAAEFYGSLEHPQTHYLAVAVVKKGTDFQLNQLQGKKSCHTGLGRSAGWIIPIGLLFCNLPEPRKPLEKAVASFFSGSCVPCADPVAFPQLCQLCPGCGCSPTQPFFGYVGAFKCLRDGGGDVAFVKHTTIFEVLPQKADRDQYELLCLDNTRKPVDQYEDCYLARIPSHAVVARNGDGKEDLIWEILKVAQEHFGKGKSKDFQLFGSPLGKDLLFKDSAFGLLRVPPRMDYRLYLGHSYVTAIRNQREGVCPEGSIDSAPVKWCALSHQERAKCDEWSVSSNGQIECESAESTEDCIDKIVNGEADAMSLDGGHAYIAGQCGLVPVMAENYDISSCTNPQSDVFPKGYYAVAVVKASDSSINWNNLKGKKSCHTGVDRTAGWNIPMGLLFSRINHCKFDEFFSQGCAPGYKKNSTLCDLCIGPAKCAPNNREGYNGYTGAFQCLVEKGDVAFVKHQTVLENTNGKNTAAWAKDLKQEDFQLLCPDGTKKPVTEFATCHLAQAPNHVVVSRKEKAARVSTVLTAQKDLFWKGDKDCTGNFCLFRSSTKDLLFRDDTKCLTKLPEGTTYEEYLGAEYLQAVGNIRKCSTSRLLEACTFHKS |  | does not work as an interfering reagent

Source: patent US5654179A, “Nucleic acid preparation methods” (HRI Research, Inc., priority 1994, dated 1997)
